Measured values taken from article PMC3232451 (Nature structural & molecular biology, 2011).
Where no end group is shown, it is not given here.

What was measured:
[1] = biological target: TBL1 wild type (gel filtration and HSQC; limits not stated) (human); experiment: NMR HSQC spectra
[2] = biological target: TBL1 wild type (gel filtration and HSQC; limits not stated) (human); experiment: SEC
TBL1 F26A (human) [3] = experiment: NMR HSQC spectra
TBL1 F26A (human) [4] = experiment: SEC
crystal structure = biological target: the molecule itself; experiment: crystal structure
[5] = biological target: T1, SMRT(167-207), GST removed (human, UniProt Q9Y618 167-207); experiment: NMR structure
T1 chain (looked up): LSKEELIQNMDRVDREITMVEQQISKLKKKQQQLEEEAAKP

His6-TBL1(1-90) = biological target: T2, His6-TBL1(1-90) (human, UniProt O60907-2 1-90); experiment: fluorescence polarisation
T2 sequence (looked up): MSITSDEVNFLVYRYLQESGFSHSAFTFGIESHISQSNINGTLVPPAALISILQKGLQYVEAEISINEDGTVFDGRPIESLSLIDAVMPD

With “TBL1 wild type (gel filtration and HSQC; limits not stated) (domain or fragment)” as the molecule, how does the stoichiometry N [1] read?
The stoichiometry N was 4.

What about the stoichiometry N [2] of the same molecule?
The stoichiometry N was 4.

With TBL1 F26A (domain or fragment) as the molecule, how does the stoichiometry N (TBL1 F26A (human) [3]) read?
Its stoichiometry N is 2.

And the stoichiometry N (TBL1 F26A (human) [4])?
Its stoichiometry N is 2.

B1: His6-TBL1(1-71) (domain or fragment, human, UniProt O60907-2 1-71, looked up)
chain: MSITSDEVNFLVYRYLQESGFSHSAFTFGIESHISQSNINGTLVPPAALISILQKGLQYVEAEISINEDGT
Which “stoichiometry N” value (crystal structure) does the source give for B1 here?
The value was 4.

B2: GPS2(53-90) (domain or fragment, human, UniProt Q13227 53-90, looked up)
chain: KKEMEERMSLEETKEQILKLEEKLLALQEEKHQLFLQL
Does B2 bind [5]?
Result: binds

B3: BODIPY labeled GPS2(1-52) (peptide, UniProt Q13227 1-52, looked up)
chain: MPALLERPKLSNAMARALHRHIMMERERKRQEEEEVDKMMEQKMKEEQERRK
modifications: also: BODIPY label, position not given here
Which Kd (His6-TBL1(1-90)) does the source give for B3 here?
The Kd was 5.1 µM.

B4: BODIPY labeled SMRT(227-260) (peptide, UniProt Q9Y618 227-260, looked up)
chain: VQIIYDENRKKAEAAHRILEGLGPQVELPLYNQP
modifications: also: BODIPY label, position not given here
Which Kd (His6-TBL1(1-90)) does the source give for B4 here?
The Kd was 14.7 µM.
